Test [1] deals with T1, His-NusA-ch-TOG(1517-1957) wild type (UniProt Q14008 1517-1957).
T1 construct: held on Ni Sepharose beads by the His tag; source: recombinant, expressed and purified as stated in earlier work [11]; not shown: His, N-terminal, kept; NusA, N-terminal, kept
Kind of test: pull-down; His-NusA-ch-TOG(1517-1957) wild type and mutant proteins bound to Ni Sepharose beads, then incubated with TACC3(629-838); SDS-PAGE and Western blot with anti-TACC3 TACC domain antibody; His-NusA as tag binding control. The following applies: both partners purified. (In general: A western blot detects proteins with antibodies after separation by electrophoresis.)

The target of a further test is T2, ch-TOG(1517-1957) (UniProt Q14008 1517-1957).
T2 construct: source: recombinant, expressed and purified as stated in earlier work [11]
Kind of test: pull-down; His-NusA-TACC3(629-838) bound to Ni Sepharose beads and incubated with ch-TOG proteins; His-NusA as tag binding control. The following applies: both partners purified.

The results in this text go back to paper doi:10.1101/008359, “TACC3–ch-TOG track the growing tips of microtubules independently of clathrin and Aurora-A phosphorylation” (bioRxiv, 2014).

T2 sequence (Q14008 1517-1957): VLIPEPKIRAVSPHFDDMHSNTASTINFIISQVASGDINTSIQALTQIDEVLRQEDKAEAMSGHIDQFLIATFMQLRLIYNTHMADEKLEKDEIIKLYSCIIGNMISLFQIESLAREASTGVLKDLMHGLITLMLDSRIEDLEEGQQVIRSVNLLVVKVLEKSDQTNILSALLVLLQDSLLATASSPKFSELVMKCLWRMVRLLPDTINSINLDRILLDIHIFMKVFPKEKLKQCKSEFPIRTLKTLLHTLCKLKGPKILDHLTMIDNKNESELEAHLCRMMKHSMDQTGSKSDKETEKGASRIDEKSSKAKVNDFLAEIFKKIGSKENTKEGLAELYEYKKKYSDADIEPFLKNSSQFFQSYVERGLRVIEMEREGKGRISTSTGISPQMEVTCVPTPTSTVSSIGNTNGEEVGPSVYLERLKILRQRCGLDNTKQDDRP
T1 sequence (Q14008 1517-1957): as above

B1: TACC3(629-838) (domain or fragment)
chain: not shown
notes: source: recombinant, expressed and purified as stated in earlier work [11]
In the case of B1, in test [1], the binding result was “binds”.

B2: His-NusA-TACC3(629-838) (domain or fragment)
chain: not shown
notes: Held on Ni Sepharose beads by the His tag; source: recombinant, expressed and purified as stated in earlier work [11]; not shown: His, N-terminal, kept; NusA, N-terminal, kept
Take B2: the binding result in the test with ch-TOG(1517-1957) is recorded as “binds”.
